The values below come from patent US5753435.

In test [1] the target is T1, low molecular weight (LMW) polypeptide component of the oxido reductase system of Penicillium chrysogenum (Penicillium chrysogenum).
T1 sequence: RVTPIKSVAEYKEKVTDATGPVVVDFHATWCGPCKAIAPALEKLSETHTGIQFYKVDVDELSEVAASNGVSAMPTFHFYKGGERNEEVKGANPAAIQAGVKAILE

In test [2] the target is thioredoxin obtained from Spirulina platensis (Spirulina platensis).
Test [3] has as its target T1, low molecular weight (LMW) polypeptide component of the oxido reductase system of Penicillium chrysogenum (Penicillium chrysogenum). The source holds these as a separate data set.
For test [4] the target is unchanged. The source holds these as a separate data set.
The target of test [5] is thioredoxin obtained from Spirulina platensis (Spirulina platensis). The source holds these as a separate data set.
The target of test [6] is insulin.
Test [7] has as its target δ-(L-α-aminoadipyl)-L-cysteinyl-D-valine (ACV) synthetase purified from Acremonium chrysogenum C10 (ATCC 48272) (Acremonium chrysogenum) (UniProt P25464).

B1: high molecular weight (HMW) polypeptide component of the oxido reductase system of Penicillium chrysogenum (enzyme)
chain: VHSKVVIIGSGPGAHTAAIYLSRAELQPVLYEGMLANGTAAGGQLTTTTDVENFPGFPSGIGGAELMDNMRAQSERFGTEIITETISKLDLSSRPFKMWTEWNDDEGSEPVRTADAVIIATGANARRLNLPGEETYWQNGISACAVCDGAVPIFRNKPLYVIGGGDSAAEEAMFLAKYGSSVTVLVRKDKLRASNIMADRLLAHPKCKVRFNTVATEVIGENKPNGLMTHLRVKDVLSNAEEVVEANGLFYAVGHDPASGLVKGQVELDDEGYIITKPGTSFTNVEGVFACGDVQDKRYRQAITSAGSGCVAALEAEKFIAETETHQEAKPVL
On to B1, for which the bis-ACV reductase activity: µmol NADPH oxidized per minute (340 nm) (µmol NADPH/minute) amounted to 2.25 in test [1] and 1.93 in test [2]. This molecule also gave a production of isopenicillin N from bis-ACV by IPNS under non-reducing conditions: antibiotic µg/ml by bioassay on Micrococcus luteus in test [3] of 72 µg/mL. Moreover, the results for the DTNB reductase activity: increase of absorbance at 412 nm after 15 minutes (absorbance at 412 nm) in test [4] and in test [5] were 0.225 and 0.08, respectively.

B2: oxido reductase enzyme system of Penicillium chrysogenum (HMW and LMW components together, with NADPH) (enzyme)
chain 1: VHSKVVIIGSGPGAHTAAIYLSRAELQPVLYEGMLANGTAAGGQLTTTTDVENFPGFPSGIGGAELMDNMRAQSERFGTEIITETISKLDLSSRPFKMWTEWNDDEGSEPVRTADAVIIATGANARRLNLPGEETYWQNGISACAVCDGAVPIFRNKPLYVIGGGDSAAEEAMFLAKYGSSVTVLVRKDKLRASNIMADRLLAHPKCKVRFNTVATEVIGENKPNGLMTHLRVKDVLSNAEEVVEANGLFYAVGHDPASGLVKGQVELDDEGYIITKPGTSFTNVEGVFACGDVQDKRYRQAITSAGSGCVAALEAEKFIAETETHQEAKPVL
chain 2: RVTPIKSVAEYKEKVTDATGPVVVDFHATWCGPCKAIAPALEKLSETHTGIQFYKVDVDELSEVAASNGVSAMPTFHFYKGGERNEEVKGANPAAIQAGVKAILE
As for B2, in test [6], the KM for reduction of the protein disulphide in insulin turned out to be 2300 µM.

B3: low molecular weight (LMW) polypeptide component of the oxido reductase system of Penicillium chrysogenum (protein)
chain: RVTPIKSVAEYKEKVTDATGPVVVDFHATWCGPCKAIAPALEKLSETHTGIQFYKVDVDELSEVAASNGVSAMPTFHFYKGGERNEEVKGANPAAIQAGVKAILE
The molecule B3 gave an ACVS activity: dpm of labelled ACV produced from [14C]valine in test [7] of 509 dpm.
